From patent US20190194683A1 (WISCONSIN ALUMNI RESEARCH FOUNDATION, published 2019)

T1: α-SNAPRhg1LC1-279 (α-SNAPRhg1LC lacking the final 10 C-terminal residues) (Glycine max (soybean))
T1 construct: both say that the final 10 C-terminal residues are missing; also called α-SNAPRhg1LC1-280
T1 chain: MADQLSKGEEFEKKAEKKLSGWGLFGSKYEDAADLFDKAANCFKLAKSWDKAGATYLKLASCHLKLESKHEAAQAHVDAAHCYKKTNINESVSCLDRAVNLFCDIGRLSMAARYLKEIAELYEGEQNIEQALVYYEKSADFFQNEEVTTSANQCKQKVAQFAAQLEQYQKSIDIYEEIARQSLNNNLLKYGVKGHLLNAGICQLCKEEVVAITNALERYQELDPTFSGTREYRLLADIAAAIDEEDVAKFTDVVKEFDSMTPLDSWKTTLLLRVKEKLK

T2: α-SNAPRhg1WT1-279 (WT α-SNAP lacking the final 10 C-terminal residues) (Glycine max (soybean))
T2 construct: also called α-SNAP lacking the C-terminus
T2 chain: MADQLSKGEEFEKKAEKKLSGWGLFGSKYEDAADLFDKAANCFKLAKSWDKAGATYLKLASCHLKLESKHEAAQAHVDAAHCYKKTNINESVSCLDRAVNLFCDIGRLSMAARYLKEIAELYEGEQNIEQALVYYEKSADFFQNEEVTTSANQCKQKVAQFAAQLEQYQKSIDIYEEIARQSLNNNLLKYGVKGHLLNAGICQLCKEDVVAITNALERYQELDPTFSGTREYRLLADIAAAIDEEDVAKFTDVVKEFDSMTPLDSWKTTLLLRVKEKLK

T3: α-SNAPRhg1WT (wild-type α-SNAP encoded by Glyma.18G022500, Williams 82) (Glycine max (soybean))
T3 construct: also called WT α-SNAP; wild-type (WT) Rhg1 α-SNAP
T3 chain: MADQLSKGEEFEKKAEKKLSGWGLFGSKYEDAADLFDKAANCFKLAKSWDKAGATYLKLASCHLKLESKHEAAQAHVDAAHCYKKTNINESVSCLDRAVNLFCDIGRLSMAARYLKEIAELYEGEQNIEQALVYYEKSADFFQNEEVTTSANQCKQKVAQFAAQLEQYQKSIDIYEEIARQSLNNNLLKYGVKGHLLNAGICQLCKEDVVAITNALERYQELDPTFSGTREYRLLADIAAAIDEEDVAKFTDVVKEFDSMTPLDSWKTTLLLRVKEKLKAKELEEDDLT

T4: α-SNAPRhg1HC (high copy Rhg1 resistance-type α-SNAP, Glyma.18G022500 Fayette) (Glycine max (soybean))
T4 construct: Recombinant protein, His-SUMO tag cleaved off; also called high copy (HC) Rhg1 α-SNAP
T4 chain: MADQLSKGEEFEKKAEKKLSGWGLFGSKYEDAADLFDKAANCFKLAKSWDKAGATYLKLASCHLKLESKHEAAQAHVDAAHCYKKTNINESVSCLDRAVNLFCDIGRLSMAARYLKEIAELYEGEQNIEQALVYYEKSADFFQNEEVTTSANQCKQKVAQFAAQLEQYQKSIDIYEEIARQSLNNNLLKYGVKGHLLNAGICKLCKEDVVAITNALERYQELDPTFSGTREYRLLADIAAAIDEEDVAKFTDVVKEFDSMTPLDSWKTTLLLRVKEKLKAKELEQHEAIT

T5: α-SNAPRhg1LC (low copy Rhg1 resistance-type α-SNAP, Glyma.18G022500 Peking) (Glycine max (soybean))
T5 construct: Recombinant protein, His-SUMO tag cleaved off; also called low-copy (LC) Rhg1 α-SNAP
T5 chain: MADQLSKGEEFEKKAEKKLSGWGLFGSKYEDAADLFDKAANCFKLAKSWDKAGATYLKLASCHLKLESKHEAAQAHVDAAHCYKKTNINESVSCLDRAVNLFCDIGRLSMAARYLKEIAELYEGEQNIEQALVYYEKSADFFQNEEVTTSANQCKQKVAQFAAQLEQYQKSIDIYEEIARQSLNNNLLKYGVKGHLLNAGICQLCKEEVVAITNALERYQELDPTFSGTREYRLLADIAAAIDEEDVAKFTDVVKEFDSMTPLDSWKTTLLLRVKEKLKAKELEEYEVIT


Key:
[1] = target: T1, α-SNAPRhg1LC1-279 (α-SNAPRhg1LC lacking …); assay: in vitro binding
[2] = target: T2, α-SNAPRhg1WT1-279 (WT α-SNAP lacking …); assay: in vitro binding of recombinant NSF to tube-adsorbed α-SNAP, silver-stained SDS-PAGE
Method: To verify that NSFRAN07/α-SNAP binding is dependent upon NSF-binding patches at the α-SNAP C-terminus, NSFRAN07 binding to an otherwise WT α-SNAP lacking the final 10 C-terminal residues (α-SNAPRhg1WT₁₋₂₇₉) was determined. Binding of NSFCh07WT or NSFRAN07 binding with α-SNAP Rhg1WT₁₋₂₇₉ was disrupted, similar to the no α-SNAP binding controls (FIG. 10C).
(§1) In vitro NSF binding assays were performed essentially as described in Barnard et. al. (1997) J Cell Biol 139(4): 875-883; and Bayless et al. (2016), Proc Natl Acad Sci USA 113(47): E7375-E7382; Briefly, 20 μg of each respective recombinant α-SNAP protein was added to the bottom of a 1.5-mL polypropylene tube and incubated at 25° C. for 20 min. Unbound α-SNAP proteins were then washed by adding α-SNAP wash buffer [25 mM Tris, pH 7.4, 50 mM KCl, 1 mM DTT, 0.4 mg/mL bovine serum albumin (BSA)]. After removal of wash buffer, 20 μg of recombinant NSF (1 μg/μL in NSF binding buffer), was then immediately added and incubated on ice for 10 min. The solution was then removed, and samples were immediately washed 2× with NBB to remove any unbound NSF. Samples were then boiled in 1×SDS loading buffer and separated on a 10% Bis-Tris SDS-PAGE, and silver-stained using the ProteoSilver Kit (Sigma-Aldrich), according to the manufacturer directions. The percentage of NSF bound by α-SNAP was then calculated using densitometric analysis with ImageJ.

[3] = target: T3, α-SNAPRhg1WT (wild-type α-SNAP encoded …); assay: in vitro binding: α-SNAP adsorbed to tube, recombinant NSF added, bound NSF on silver-stained SDS-PAGE, ImageJ densitometry
Source text: (§2) All Rhg1-containing HG type test and NAM lines contained NSFRAN07, and α-SNAPRhg1HC and α-SNAPRhg1LC are polymorphic at C-terminal residues that bind and stimulate NSF. Therefore, the impact of NSFRAN07 polymorphisms on binding to both Rhg1 resistance-type α-SNAPs and α-SNAPRhg1WT was investigated. Recombinant NSFRAN07, NSFCh07 and Rhg1 α-SNAP proteins were produced for in vitro binding studies as previously described in (Barnard et al., 1997, J Cell Biol 139, 875-883; (Bayless et al. 2016, Proc. Natl. Acad. Sci. USA 113, E7375-E7382). NSFRAN07 and NSFCh07 binding was quantified using ImageJ densitometry across three independent experiments (FIG. 3D). NSFCh07 binding to α-SNAPRhg1HC and α-SNAPRhg1LC was reduced compared to α-SNAPRhg1WT (FIG. 3C). In contrast, NSFRAN07 binding to α-SNAPRhg1HC or α-SNAPRhg1LC was similar to α-SNAPRhg1WT binding, and was increased ˜30% relative to NSFCh07.
as §1

[4] = target: T4, α-SNAPRhg1HC (high copy Rhg1 …); assay: as above
Source text: as §2, §1

[5] = target: T5, α-SNAPRhg1LC (low copy Rhg1 …); assay: as above
Source text: as §2, §1

[6] = target: T4, α-SNAPRhg1HC (high copy Rhg1 …); assay: in vitro binding, densitometry of silver-stained SDS-PAGE across three independent experiments; reference NSFCh07 on the same α-SNAP
Source text: as §2
(§3) In vitro NSF binding assays were performed essentially as described in Barnard et. al. (1997) J Cell Biol 139(4): 875-883; and Bayless et al. (2016), Proc Natl Acad Sci USA 113(47): E7375-E7382; Briefly, 20 μg of each respective recombinant α-SNAP protein was added to the bottom of a 1.5-mL polypropylene tube and incubated at 25° C. for 20 min. […] The percentage of NSF bound by α-SNAP was then calculated using densitometric analysis with ImageJ.

[7] = target: T5, α-SNAPRhg1LC (low copy Rhg1 …); assay: as above
Source text: as §2, §3

| Binder | binding result [1] | binding result [2] | binding result [3] | binding result [4] | binding result [5] | increase of binding relative to NSFCh07 [6] [%] | increase of binding relative to NSFCh07 [7] [%] |
| --- | --- | --- | --- | --- | --- | --- | --- |
| NSFCh07 (wild-type NSF encoded by Glyma.07G195900, soybean reference genome Williams 82) (enzyme, Recombinant protein from E. coli; also called NSFCh07WT; NSF-WT) MASRFGLSSSSSSASSMRVTNTPASDLALTNLAFCSPSDLRNFAVPGHNNLYLAAVADSFVLSLSAHDTIGSGQIALNAVQRRCAKVSSGDSVQVSRFVPPEDFNLALLTLELEFVKKGSKSEQIDAVLLAKQLRKRFMNQVMTVGQKVLFEYHGNNYSFTVSNAAVEGQEKSNSLERGMISDDTYIVFETSRDSGIKIVNQREGATSNIFKQKEFNLQSLGIGGLSAEFADIFRRAFASRVFPPHVTSKLGIKHVKGMLLYGPPGTGKTLMARQIGKILNGKEPKIVNGPEVLSKFVGETEKNVRDLFADAEQDQRTRGDESDLHVIIFDEIDAICKSRGSTRDGTGVHDSIVNQLLTKIDGVESLNNVLLIGMTNRKDMLDEALLRPGRLEVQVEISLPDENGRLQILQIHTNKMKENSFLAADVNLQELAARTKNYSGAELEGVVKSAVSYALNRQLSLEDLTKPVEEENIKVTMDDFLNALHEVTSAFGASTDDLERCRLHGMVECGDRHKHIYQRAMLLVEQVKVSKGSPLVTCLLEGSRGSGKTALSATVGIDSDFPYVKIVSAESMIGLHESTKCAQIIKVFEDAYKSPLSVIILDDIERLLEYVPIGPRFSNLISQTLLVLLKRLPPKGKKLMVIGTTSELDFLESIGFCDTFSVTYHIPTLNTTDAKKVLEQLNVFTDEDIDSAAEALNDMPIRKLYMLIEMAAQGEHGGSAEAIFSGKEKISIAHFYDCLQDVVRL | no binding | no binding (tested: 20 µg NSF (1 µg/µL)) | binds | binds | binds |  |  |
| NSFRAN07 (Rhg1-associated NSF from chromosome 07, allele of Glyma.07G195900) (enzyme, Recombinant protein from E. coli, ORF cloned from Forrest (Rhg1LC) cDNA; Differs from NSFCh07 by R4Q, N21Y, S25N, insertion 116F and M181I; also called Glyma.07G195900 RAN07) MASQFGLSSSSSSASSMRVTYTPANDLALTNLAFCSPSDLRNFAVPGHNNLYLAAVADSFVLSLSAHDTIGSGQIALNAVQRRCAKVSSGDSVQVSRFVPPEDFNLALLTLELEFFVKKGSKSEQIDAVLLAKQLRKRFMNQVMTVGQKVLFEYHGNNYSFTVSNAAVEGQEKSNSLERGIISDDTYIVFETSRDSGIKIVNQREGATSNIFKQKEFNLQSLGIGGLSAEFADIFRRAFASRVFPPHVTSKLGIKHVKGMLLYGPPGTGKTLMARQIGKILNGKEPKIVNGPEVLSKFVGETEKNVRDLFADAEQDQRTRGDESDLHVIIFDEIDAICKSRGSTRDGTGVHDSIVNQLLTKIDGVESLNNVLLIGMTNRKDMLDEALLRPGRLEVQVEISLPDENGRLQILQIHTNKMKENSFLAADVNLQELAARTKNYSGAELEGVVKSAVSYALNRQLSLEDLTKPVEEENIKVTMDDFLNALHEVTSAFGASTDDLERCRLHGMVECGDRHKHIYQRAMLLVEQVKVSKGSPLVTCLLEGSRGSGKTALSATVGIDSDFPYVKIVSAESMIGLHESTKCAQIIKVFEDAYKSPLSVIILDDIERLLEYVPIGPRFSNLISQTLLVLLKRLPPKGKKLMVIGTTSELDFLESIGFCDTFSVTYHIPTLNTTDAKKVLEQLNVFTDEDIDSAAEALNDMPIRKLYMLIEMAAQGEHGGSAEAIFSGKEKISIAHFYDCLQDVVRL | no binding | no binding (tested: 20 µg NSF (1 µg/µL)) | binds |  |  | ~30 | ~30 |
